Experiment: label from the status in PepcDB records

| Sequence | protein production |
| --- | --- |
| MDAAVTDDFQQILPIEQLRSTHASNDYVERPPAPCKQALSSPSLIVQTHKSDWSLATMPTSLPRSLSQCHQLQPLPQHLSQSSIASSMSHSTTASDQRLLASITPSPSGQSIIRTQPGAGVHPKADGALKGEAEQSAGHPSEHLFICEECGRCKCVPCTAARPLPSCWLCNQRCLCSAESLLDYGTCLCCVKGLFYHCSTDDEDNCADEPCSCGPSSCFVRWAAMSLISLFLPCLCCYLPTRGCLHLCQQGYDSLRRPGCRCKRHTNTVCRKISSGSAPFPKAQEKSV | failed |
| MVLTKKYDKLGHILLNVFIVFCTFEVFIKGVLTLQQESSSGVNAIKIGILLFMIFAIVLKGKIKGMTTKIKGIMFIYLVFFIVLGLKILSINQMSDITGWLSDNNNLNYIFSFVCFIIILNIDIKRESVINTLIVSSTVVMVISFIFFIKNNYYGLAAPDIIQAYSMGFLNKTRMLSIFASPNHAGLYFVMVYLIVDFRGQKNLAMLFKLYKFLLIVCIMLTLSRTAIGILLLYIIIKIIRSKNAKSVVRFGIISLMVVLIGITLWIAISKYNVYFFSASYIKADNRWIKWQVAIEYIKKYWAIGAPFNIKVQMYAYVNSAITSVEFSDNLFLEIASRFGVPLIACIFIFMIKNLRRAFNEKKITDITKILVFIISSITTGSIHFTIPMILFIVYCDKFD | failed |
| MDTAEIEADQRALQHASVEGTTETPGNAQSSTNDDVIKATVDQIVAQILSESAERKATEEGKTGKAADDVKNTPESGEDANKAAAKEPSGTPVAASSEATVPAPGSASSSNSPLPGTPPKYSNPHNLTIGARLEALSVEGNWLPARIVEVNETEQTLLVRFERNHKLKVSPSTSGSFQEWMAIKSERLRQRLSNRVLPVFELDEKCMARWSGPRKFPGTIRKLLGNDTYEVLFDDGYVKNVRAVHMNKMPKQLPPVQVAEEGASKSPTPVGTPVSSAPVAPKRASTGSLGGSSGSSGSKKSKCAPQRRDWPLLDMASLDIASLGLPEIPHDGEWTCHWVNDQPIGTEGFLIVGEHQKPTVIVQDWRLPPGWIKHMYQRSNVLGKWDVILVSPSGKRFRSKSDLKLFLESQNLVYNPDVYDFSIHRRRAKDINAYVYTHGYNPQPPPKPRPMDVSMNSTLDQSITSQHSLPSTPMPVKESQYMEAPVASLMPPAELMSPQTQPADETKPKIEAEILEASEGGTSQLMLADPHVVENGFAFIGGLKVKIQDNLYVCPREDCAKTYRKEDFLLIHIRHYHKEFAEHVSHCPKMQELAVKRTHPSSIDQVEAVPKNQIPNQQFFAKMHQQDLQQSRSFKRQSVSATATSSTPSDITPTKALLSPKMEPPSVSPTVESGIKQEDVSLDAGPTQSFNPSLSRSCKRARLSPSKRPSGSRKSNRQRSQRRPILSDNPAGHGLTEQDVEETRQSFNTPTPDTRIDSKKRRSGAATTPISSIDSPAMGDSVSTPSSNDQTDINAALAPPPAETLSKAPQYIKENGELIRIVRMRQEEIINCICEYGEEDGLMIQCELCLCWQHGACNGIVKEADVPDKYVCYICRNPQRGRDSMRFKHDQDWLFEGKLPVAAYHTANPQATKQFELLKRSHTLTGNLLDAKRSMHSLLVKINIARNRCHPKLYLWAKKWDEDNLDSTALTPVKRAKLEAPDLPNVPQPEAAIDPEECQYRLIEHIKVQQSLVLDRLNDIEAEMDELEKEDTLDDLKDADISTTKEALATFIKELETMKRLAKLNQVANMKQTLRDSATSK | failed |
| MAGFVPLRWPISRMSSAVPRYIVGIDLGTTHTVVSYADGGDPSRIEPLFLEQLVAPGQVAGRPLLPSVRYHPATGELAEADTALPWPVEETAPGCRPVIGEFARQLGSRSRGRLVASAKSWLCHTGVDRTADILPWGAPDEVPKVSPVEASASFLRHVRCAWNHRFPAHPLETQDVIVTIPASFDDAARALTVEAARRAGLANVRLLEEPQAACYDFLWTYRGRLAETLEGVNLLLVCDVGGGTTDFTLIRVDAGGSEPELERIAVGNHLMLGGDNIDLTLAHRLEPRLTGAERSLSATDLILLAEQCRRAKETLLAEQGPESVTVTLLGKGGGLIGGARSVELSRHEVLEVVLDGFFPRVGADAVPERRSGVVEFGLPYAADPAITRHAAAFLIRHRNDAGGAAPDALLLNGGVFHSPVIAGRMAEVVGSWCGRTPVMLRNPRPDQAVAFGAVAFGLSRRGLAVRRIGGGSARAYYLLVGDANERSRRGVCILPRGAAEGQEWTVERRNFLLSVGRPVRFHVFSSTVDSGHAPGDLAVLDEAGFGELPPLAVALQAQEQGDVEVRLAARLTAIGTLQLQCVAVGDPEQRWDLELQLRGGGPRPTASASLHPRAAEAQEHIGLIFGKKTRQFGPKAVKTLRNDLEKILGKREDWDTALCRELYAALLEGAPHRRRSADHERLWLSLAGYCLRPGFGAPLDDWRVGQVWNLYSQGLQFVNEAQNWSEWWIVWRRIAGGLRAEAQQRLFADVAGFIDPVRARRGNAEALAKKRAFEDMVRLAASLERLSAGDKTMLGGWLVQRLDKAPDSAELWWALGRVGARAPFHGSAHNLVAREVVEDWVELALQRDWKRQGFVAFAATLLARLTGDRERDLDATLRNRVAEKLVASSAPEIWLELVTEVRGLDASDEKRIFGEGLPPGLRLVDSAWGALEHHHHHH | failed |
| MTPSPHDLLHCGMNSQDRDETNGDRQRLVRVALGQEDGDLLVRGAQVVQPVTREVYAADVLVAGGRVAAVGPDLPARARRTVQARGAYLAPGFIDGHIHIESSLLTPASFAAAVLPHGTTAVVAEPHEIVNVLGPAGLNWMLGAGRTSGLRVYASAPSCVPASEFEQGGARVDAAQVAEMLARPGVLGLAEMMNYPGVLGGDAGVWDILNAGRRSGKRLDGHAAGLGGRELLAYAAAGLHSDHEATTPEEARERLRAGLWLMVREGSAARNLAALLPVLRDLPRRALLVSDDVSVDELLELGHLDRLLRTCVAGGLHPADAVALVTSQPAEYWGLHDLGVIAPGYHADFVLLRDLQHFGVLETFVGGEEARPGGETPPLPGGGVDLGPGWDGATFDPPAHWPTLQMFPDQIVTGRAAPGSGDARLVVADRYGRGEWSSCWTLGSGLRGGTLGISILHDAHQVALLGGSDADLRAAGRALERLGGGIVLVVDGEVREQLPLPYAGLMTDHAPAEAAAALGRVTAAARLLGCMPAGRL | failed |
| MDPWDTYNIPLDHQHRLRNRRDHRHPSFSSTLLDQIYRSIDDSSTNSSSMRKTKHQNREDTRVSANRRDDFNRSKNLKTIEPVFFKHSSSSSSDSSGFSSSESDYFYRRSKSSPAISHPKPIRTTVERFERSPQNHRPNSSNKQEHGSFLKTKSKALKIYSDLKKVKQPISPGGRLATFLNSIFTGAGNTKKLNKINTTVTSTTAAAAAASSTTTCSSASSFSRSCLSKTPSSSEKSKRSVRFCPVNVIFDEDSSKYNNKNNKVYGNNEREYESIRHTLENRVMEENRRVIEAAKELLRSYQKKNKEVIEVSVEDDEEDDDDDALSCTSSDLFELDNLSAIGIDRYREELPVYETTRLNTNRIISR | failed |
| MIKKIFALPVIEQISPVLSRRKLDELDLIVVDHPQVKASFALQGAHLLSWKPAGEEEVLWLSNNTPFKNGVAIRGGVPVCWPWFGPAAQQGLPAHGFARNLPWTLKSHHEDADGVALTFELTQSEETKKFWPHDFTLLAHFRVGKTCEIDLESHGEFETTSALHTYFNVGDIAKVSVSGLGDRFIDKVNDAKENVLTDGIQTFPDRTDRVYLNPQDCSVINDEALNRIIAVGHQHHLNVVGWNPGPALSISMGDMPDDGYKTFVCVETAYASETQKVTKEKPAHLAQSIRVAKR | not failed |
| MTSRTRDTDTDRATDTDTDRATATLDHAMARSQGLDTLLRDLTDRAVVQVPGAVACSVTVRRADRLMTLAGSTGLPSGLDLRQYENGSGPCVDAAESGDAQYCADLAEETRWPAYTEYALATGVRCVLALPLPIEGETGAALNLYGLVPGSLVQGLDAARAFAERAADAVNEALRIERRQASAADVRTALLSRSVIDQAVGMLMARERIDAHRALERLRRASQDRNVKLRDLCAQVVARASGGASHRGQ | failed |
| MVDYKTVRCHFGDVELTKWITITDGFTVFSGADYDPELKEIGGKDGSIFIGTKTKHKVIKVPFWVKYNTIEDYDALQLALSSKKPKMLMFSHIPGRYYLAVQVGDLNFKEIKMNGFGEITFIVADAYAHSTSYRRIKDYTQDGNKMTFKIKNNGTAPAFPIFRIKHLGENGYIGITNETGAFAVGSPEEEDGTIVHRNETLFDYSKAIAQALEGAPNVAKLNYMPPTFDSELKRMRLDNILGSGKGGEYVAIGARGTTPGYGEHVGTRTFIINPDSNGEYTLNEHLWWKQIFIATAQDQKGFLKLCVTGENDEFLYGIETYKRKNGFETEYNFFALDDDGVGWRFYKQFEFQADRNYHNPFSMNRSRAVEIFREEDKFRIYFNGAHHHVTVPSLKGKKSRKIHLAMGTCSDSSKYINYNLFEKVNFEKMGVSHYNNIVNKYQPGDEVIINFENDTVSTKDIDSIQDVVLGSKMISIPPGESELVVHLSSWVAALPDISIDFEERYK | failed |
